This is an account of results in US20200368361A1.

In experiment [1] the target is human MSR1 endogenously expressed on PMA-differentiated THP-1 cells (human) (UniProt P21757). As to the kind of experiment: imaging of PMA-differentiated THP-1 cells, 10 ug/mL antibody, Alexa 488 secondary.
The target is the same in experiment [2]. Kind of experiment: cell-based or functional assay.
In experiment [3] the target is full length monkey MSR1 on HEK293.mfMSR1 cells (Macaca fascicularis). Kind of experiment: ECL cell binding, HEK293.mfMSR1.
full length monkey MSR1 on HEK293.mfMSR1 cells (Macaca fascicularis), sequence (chain, as listed by the source): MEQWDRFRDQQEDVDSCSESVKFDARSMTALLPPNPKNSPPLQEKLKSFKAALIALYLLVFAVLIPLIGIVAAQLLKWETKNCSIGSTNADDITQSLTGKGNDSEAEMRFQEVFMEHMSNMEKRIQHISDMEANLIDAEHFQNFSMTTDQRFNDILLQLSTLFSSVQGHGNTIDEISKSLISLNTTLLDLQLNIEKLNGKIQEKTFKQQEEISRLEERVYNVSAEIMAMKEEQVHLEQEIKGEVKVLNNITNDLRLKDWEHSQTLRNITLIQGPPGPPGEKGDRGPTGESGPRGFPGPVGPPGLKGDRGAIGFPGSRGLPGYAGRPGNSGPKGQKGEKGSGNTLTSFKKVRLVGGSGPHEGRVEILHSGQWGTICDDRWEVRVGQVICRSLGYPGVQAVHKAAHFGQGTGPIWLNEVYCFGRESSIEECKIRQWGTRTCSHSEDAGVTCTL
Experiment [4] concerns the target full length human MSR1 with a C-terminal Myc tag on HEK293.Myc.hMSR1 cells (human) (UniProt P21757). As to the kind of experiment: ECL cell binding, HEK293.Myc.hMSR1.
Experiment [5] has as its target endogenously expressed human MSR1 on PMA-treated THP-1 cells (human) (UniProt P21757). As to the kind of experiment: ECL cell binding, PMA-treated THP-1.
The target of experiment [6] is His9-hMSR1, human MSR1 extracellular domain with an N-terminal 9-Histidine tag (human) (UniProt P21757). As to the kind of experiment: competition ELISA on coated His9-hMSR1; competitor Ac-LDL; antibody 100 nM. For orientation: An ELISA detects its analyte on a solid surface through an enzyme-linked reagent.
His9-hMSR1, human MSR1 extracellular domain with an N-terminal 9-Histidine tag (human), sequence (P21757 other isoform, or with tags, fused parts or gaps): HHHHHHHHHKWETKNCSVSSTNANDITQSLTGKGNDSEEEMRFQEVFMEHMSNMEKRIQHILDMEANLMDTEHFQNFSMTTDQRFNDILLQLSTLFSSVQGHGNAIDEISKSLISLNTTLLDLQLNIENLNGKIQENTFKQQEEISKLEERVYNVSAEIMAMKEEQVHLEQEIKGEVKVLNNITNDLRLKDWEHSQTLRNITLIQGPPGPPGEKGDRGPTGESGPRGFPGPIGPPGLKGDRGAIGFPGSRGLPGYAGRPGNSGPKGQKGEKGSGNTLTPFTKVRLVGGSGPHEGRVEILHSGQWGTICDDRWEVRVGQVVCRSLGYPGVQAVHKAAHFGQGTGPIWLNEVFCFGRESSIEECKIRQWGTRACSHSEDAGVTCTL
For experiment [7] the target is unchanged. As to the kind of experiment: competition ELISA on coated His9-hMSR1; competitor Ox-LDL 10 nM; antibody 1 µM.
The target is the same in experiment [8]. As to the kind of experiment: competition ELISA on coated His9-hMSR1; competitor biot-AGE-BSA; antibody 300 nM.

human MSR1 endogenously expressed on PMA-differentiated THP-1 cells (human), sequence (P21757 whole entry): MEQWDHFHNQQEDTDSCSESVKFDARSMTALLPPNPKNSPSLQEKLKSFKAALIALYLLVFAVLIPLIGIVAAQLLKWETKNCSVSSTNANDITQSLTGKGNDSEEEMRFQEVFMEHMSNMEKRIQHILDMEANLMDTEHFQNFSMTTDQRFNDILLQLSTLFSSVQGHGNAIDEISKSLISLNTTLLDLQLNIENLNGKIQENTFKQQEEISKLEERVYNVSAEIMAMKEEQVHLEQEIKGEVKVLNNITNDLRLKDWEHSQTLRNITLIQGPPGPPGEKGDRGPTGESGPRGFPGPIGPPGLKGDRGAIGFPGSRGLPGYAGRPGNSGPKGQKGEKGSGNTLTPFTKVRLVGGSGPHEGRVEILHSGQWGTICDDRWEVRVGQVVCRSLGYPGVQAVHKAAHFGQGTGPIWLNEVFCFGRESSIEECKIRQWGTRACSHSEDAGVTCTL
endogenously expressed human MSR1 on PMA-treated THP-1 cells (human), sequence (P21757 whole entry, the tested form may be a part): as the sequence (P21757 whole entry) above
full length human MSR1 with a C-terminal Myc tag on HEK293.Myc.hMSR1 cells (human), sequence (P21757 whole entry): as above

Regarding “Isotype control (internalization assay of Table 19) (antibody)”, in experiment [1], the Total Binding at 4° C. worked out at 186000 RFU and the Total Binding at 37° C. was 1.09e+06 RFU. In experiment [2], this substance showed a Total Internalized RFU of 1.7e+06 RFU.
For hIgG1 Isotype Control (antibody), the binding signal ratio to isotype control (11 nM) in experiment [3], in experiment [4] and in experiment [5] was 1 fold in each case.
Consider “hIgG1 isotype control (competition ELISA of Table 20) (antibody)”, for which the figures for the % Blocking in experiment [6], in experiment [7] and in experiment [8] were -8%, 3% and 4%, respectively.
Take “mIgG1 isotype control (competition ELISA of Table 20) (antibody)”: the % Blocking is -4% in experiment [6], 16% in experiment [7] and 7% in experiment [8].
In the case of mIgG Isotype Control (antibody), the binding signal ratio to isotype control (11 nM) in experiment [3], in experiment [4] and in experiment [5] was 1 fold in each case.
